5 molecules from patent US20240158448A1 (University of Pennsylvania, published 2024) can be followed below.

Positions of bridges follow the written chain, without caps; N, C: chain ends. No end group written: not given here.

Holding throughout (test): cell-based or functional assay
Assay [1] has as its target human SIRPα expressed on cells (PMA-differentiated THP-1 macrophages; A549 cells) (human, UniProt P78324 31-504).
Assay [2] addresses T1, mouse SIRPα expressed on J774A.1 macrophages (mouse, UniProt P97797 32-513).
T1 sequence (looked up): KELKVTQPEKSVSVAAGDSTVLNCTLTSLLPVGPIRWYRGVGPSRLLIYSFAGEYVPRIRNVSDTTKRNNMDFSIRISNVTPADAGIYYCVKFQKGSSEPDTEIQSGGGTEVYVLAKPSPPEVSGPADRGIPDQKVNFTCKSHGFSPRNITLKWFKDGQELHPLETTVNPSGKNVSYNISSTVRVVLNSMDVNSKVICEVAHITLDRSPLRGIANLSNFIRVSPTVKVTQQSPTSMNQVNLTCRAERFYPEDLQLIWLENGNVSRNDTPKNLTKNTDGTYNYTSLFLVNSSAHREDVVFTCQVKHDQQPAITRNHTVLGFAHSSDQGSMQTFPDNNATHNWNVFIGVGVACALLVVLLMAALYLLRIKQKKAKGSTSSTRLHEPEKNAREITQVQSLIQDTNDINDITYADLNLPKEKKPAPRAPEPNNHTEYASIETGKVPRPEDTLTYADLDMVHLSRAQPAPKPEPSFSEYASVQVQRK

For assay [3], the target named is T2, mouse SIRPα expressed on primary bone marrow derived macrophages (C57BL6/J) (mouse, UniProt P97797 32-513).
T2 sequence (looked up): T1 sequence (looked up)

B1: nS-FF, (VTELFREG-PEG5)2-K (peptide)
peptide: VTELFREG
chain: K
modifications: not fully specified; core Lys carrying one PEG5-peptide arm on each of its two amines; C-terminal amide; C-terminus joined through a PEG5 linker to one of the two amines of the core Lys
B1: in assay [1], the “activity relative to nS-wt in phagocytosis of opsonized RBCs” value was above 100 fold and the “increase in phagocytic macrophages relative to anti-CD47 on opRBC” value was around 10%.

For VTELTREG-NH2 [nS-wt (nano-Self wild-type peptide)], in assay [2], the “fold decrease in effective activity in the mouse macrophage phagocytosis assay relative to the human assay” value was around 100 fold.

Consider CVELTREGC-NH2 (disulfide 1-9; not fully specified) [nS-Cyc (cyclic nano-Self peptide)], for which the “maximum phagocytosis of opsonized RBCs by THP-1 macrophages” value (from here on “maximum phagocytosis of opsonized RBCs”) in assay [1] is around 25%. Besides, in assay [3], the “maximum phagocytosis of opsonized B16 cells by mouse BMDMs” value (“maximum phagocytosis … by mouse BMDMs” for short) is around 25%.

B2: nS-F-Cyc (peptide)
peptide: CVTELFREGC
HELM: PEPTIDE1{C.V.T.E.L.F.R.E.G.C.[am]}$PEPTIDE1,PEPTIDE1,1:R3-10:R3$$$V2.0; N-terminus assumed
SMILES: CC(C)C[C@@H]1NC(=O)[C@H](CCC(=O)O)NC(=O)[C@H]([C@@H](C)O)NC(=O)[C@H](C(C)C)NC(=O)[C@@H](N)CSSC[C@@H](C(N)=O)NC(=O)CNC(=O)[C@H](CCC(=O)O)NC(=O)[C@H](CCCNC(=N)N)NC(=O)[C@H](Cc2ccccc2)NC1=O
Turning to B2, in assay [1], the “increase in THP-1 macrophage phagocytosis of opsonized RBCs relative to nS-wt” value was around 25% and the “maximum phagocytosis of opsonized RBCs” value was around 25%. The “maximum phagocytosis … by mouse BMDMs” value in assay [3] is around 25%.

As for VTELFREG-NH2 [nS-F], in assay [1], the “increase in THP-1 macrophage phagocytosis of opsonized RBCs relative to nS-wt” value is around 25% and the “maximum phagocytosis of opsonized RBCs” value is around 25%. For the same molecule, the “phagocytosis of opsonized RBCs by J774A.1 macrophages, relative to nS-X” value in assay [2] is 3 fold. For the same molecule, in assay [3], the “maximum phagocytosis … by mouse BMDMs” value was around 25%.
